This assay has as its target Fab fragment derived from the humanized anti-IgE monoclonal IgG omalizumab ("Xolair", Novartis), made by papain digestion. As to the kind of experiment: column breakthrough, 1 mg/mL Fab, HiTrap Protein L column, ligand density 10 mg/mL-gel from the manual.

In the case of “Protein L ligand of the commercially available Protein L carrier ("HiTrap Protein L" manufactured by GE Healthcare)”, the 55% DBC is 21.7 mg/mL-gel.

For the origin of these results see patent US20190134606A1.
